This note sets out measurements from patent publication US20130330802A1.

Assay [1] deals with mannose 6-phosphate (M6P) receptor on cultured human fibroblasts (CCD-1076SK) (human) (UniProt P11717). In words: cell-based or functional assay.
In assay [2] the target is His-tagged-hMPR9 (domain 9 of human mannose-6-phosphate receptor with C-terminal His-tag) (human) (UniProt P11717). As to the kind of experiment: SPR (Biacore T100), His-tagged-hMPR9 on NTA chip, rhI2S as analyte. For orientation: In SPR one partner is held on a chip, and binding of the other changes the refractive index at the surface.
The target of assay [3] is mannose 6-phosphate (M6P) receptor on cultured human fibroblasts (CCD-1076SK) (human), P11717. In words: cell-based or functional assay.
Sequence of mannose 6-phosphate (M6P) receptor on cultured human fibroblasts (CCD-1076SK) (human), P11717 (P11717 41-2491): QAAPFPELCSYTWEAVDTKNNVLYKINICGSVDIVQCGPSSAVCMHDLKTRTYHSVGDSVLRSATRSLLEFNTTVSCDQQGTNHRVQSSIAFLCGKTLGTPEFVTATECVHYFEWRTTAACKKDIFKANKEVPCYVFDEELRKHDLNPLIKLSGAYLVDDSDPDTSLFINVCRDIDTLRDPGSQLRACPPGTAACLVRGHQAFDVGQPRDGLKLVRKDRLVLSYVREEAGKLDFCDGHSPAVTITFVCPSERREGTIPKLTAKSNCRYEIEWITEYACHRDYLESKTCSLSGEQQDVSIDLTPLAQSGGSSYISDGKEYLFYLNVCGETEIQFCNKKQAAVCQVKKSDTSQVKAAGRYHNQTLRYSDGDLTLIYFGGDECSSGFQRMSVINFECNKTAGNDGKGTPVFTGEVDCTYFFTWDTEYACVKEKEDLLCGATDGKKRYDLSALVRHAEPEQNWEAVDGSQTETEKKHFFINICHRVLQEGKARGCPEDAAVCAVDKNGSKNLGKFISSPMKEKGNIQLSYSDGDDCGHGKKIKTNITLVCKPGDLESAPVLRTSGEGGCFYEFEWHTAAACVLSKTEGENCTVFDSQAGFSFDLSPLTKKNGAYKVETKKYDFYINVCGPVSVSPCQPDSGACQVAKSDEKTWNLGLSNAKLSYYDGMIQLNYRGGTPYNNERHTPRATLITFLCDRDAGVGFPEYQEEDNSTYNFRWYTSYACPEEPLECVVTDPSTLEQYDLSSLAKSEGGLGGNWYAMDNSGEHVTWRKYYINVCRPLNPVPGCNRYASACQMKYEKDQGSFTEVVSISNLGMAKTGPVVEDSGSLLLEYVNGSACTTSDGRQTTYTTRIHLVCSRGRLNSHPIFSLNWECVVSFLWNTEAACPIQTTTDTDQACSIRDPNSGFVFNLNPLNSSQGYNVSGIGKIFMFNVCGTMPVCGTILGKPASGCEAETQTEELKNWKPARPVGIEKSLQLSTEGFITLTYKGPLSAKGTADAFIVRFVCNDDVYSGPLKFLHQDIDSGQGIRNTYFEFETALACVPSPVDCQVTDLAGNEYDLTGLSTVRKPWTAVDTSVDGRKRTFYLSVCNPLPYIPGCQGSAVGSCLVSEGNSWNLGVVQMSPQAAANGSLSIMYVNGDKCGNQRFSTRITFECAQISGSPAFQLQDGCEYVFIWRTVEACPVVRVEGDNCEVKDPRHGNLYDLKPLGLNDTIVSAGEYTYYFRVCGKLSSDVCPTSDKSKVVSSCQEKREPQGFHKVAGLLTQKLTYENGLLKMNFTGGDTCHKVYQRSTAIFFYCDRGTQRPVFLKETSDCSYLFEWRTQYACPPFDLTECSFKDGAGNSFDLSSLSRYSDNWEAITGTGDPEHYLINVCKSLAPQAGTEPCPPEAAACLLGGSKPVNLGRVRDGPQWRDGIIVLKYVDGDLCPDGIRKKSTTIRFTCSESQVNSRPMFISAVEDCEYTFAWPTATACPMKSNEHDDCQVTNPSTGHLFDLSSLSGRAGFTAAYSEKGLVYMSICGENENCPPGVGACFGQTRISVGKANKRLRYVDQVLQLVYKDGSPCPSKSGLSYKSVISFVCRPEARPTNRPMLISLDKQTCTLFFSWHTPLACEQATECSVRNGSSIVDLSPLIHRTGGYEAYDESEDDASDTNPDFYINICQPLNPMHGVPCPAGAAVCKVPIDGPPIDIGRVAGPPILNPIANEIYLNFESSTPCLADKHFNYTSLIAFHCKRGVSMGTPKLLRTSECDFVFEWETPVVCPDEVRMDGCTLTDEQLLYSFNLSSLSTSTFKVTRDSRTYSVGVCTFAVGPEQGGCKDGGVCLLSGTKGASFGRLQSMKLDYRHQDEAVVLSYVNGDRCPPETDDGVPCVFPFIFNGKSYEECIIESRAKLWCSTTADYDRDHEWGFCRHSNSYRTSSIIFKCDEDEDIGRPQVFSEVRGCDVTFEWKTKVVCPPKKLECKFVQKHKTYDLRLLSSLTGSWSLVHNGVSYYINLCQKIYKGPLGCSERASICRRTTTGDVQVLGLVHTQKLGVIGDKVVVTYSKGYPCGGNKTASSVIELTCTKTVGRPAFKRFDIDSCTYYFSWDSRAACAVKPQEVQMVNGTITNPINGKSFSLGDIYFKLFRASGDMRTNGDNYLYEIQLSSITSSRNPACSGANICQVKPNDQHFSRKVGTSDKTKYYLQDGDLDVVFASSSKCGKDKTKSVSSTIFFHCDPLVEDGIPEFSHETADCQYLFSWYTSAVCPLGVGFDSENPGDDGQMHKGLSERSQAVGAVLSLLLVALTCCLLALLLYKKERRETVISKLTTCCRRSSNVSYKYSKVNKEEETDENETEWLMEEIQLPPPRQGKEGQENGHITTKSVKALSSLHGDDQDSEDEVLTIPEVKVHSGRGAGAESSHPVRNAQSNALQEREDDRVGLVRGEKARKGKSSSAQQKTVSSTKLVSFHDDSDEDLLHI
In assay [4] the target is His-tagged-hMPR9 (domain 9 of human mannose-6-phosphate receptor with C-terminal His-tag) (human) (UniProt P11717). As to the kind of experiment: SPR (Biacore T100), His-tagged-hMPR9 on NTA chip, rhI2S as analyte; low end of range over lots 1-7.
Assay [5] shares this target. As to the kind of experiment: SPR (Biacore T100), His-tagged-hMPR9 on NTA chip, rhI2S as analyte; average of lots 1-7.
Assay [6] shares this target. As to the kind of experiment: SPR (Biacore T100), His-tagged-hMPR9 on NTA chip, rhI2S as analyte; high end of range over lots 1-7.

For the molecule “commercially-available medicinal rhI2S (from UniProt P22304 26-550) (enzyme)”, the EC50 of cellular uptake (human fibroblasts, 18 hrs, rhI2S in lysate by ELISA) in assay [1] was 1.46 mg/L. Also, the Kd (commonly the free concentration of one partner at which half of the binding sites on the other are occupied at equilibrium, for simple one-to-one binding) in assay [2] came to 3.32 nM.

B1: recombinant human iduronate 2-sulfatase (rhI2S) of the present invention (Lot Nos. 1-7), P22304 26-550 (enzyme)
chain: SETQANSTTDALNVLLIIVDDLRPSLGCYGDKLVRSPNIDQLASHSLLFQNAFAQQAVCAPSRVSFLTGRRPDTTRLYDFNSYWRVHAGNFSTIPQYFKENGYVTMSVGKVFHPGISSNHTDDSPYSWSFPPYHPSSEKYENTKTCRGPDGELHANLLCPVDVLDVPEGTLPDKQSTEQAIQLLEKMKTSASPFFLAVGYHKPHIPFRYPKEFQKLYPLENITLAPDPEVPDGLPPVAYNPWMDIRQREDVQALNISVPYGPIPVDFQRKIRQSYFASVSYLDTQVGRLLSALDDLQLANSTIIAFTSDHGWALGEHGEWAKYSNFDVATHVPLIFYVPGRTASLPEAGEKLFPYLDPFDSASQLMEPGRQSMDLVELVSLFPTLAGLAGLQVPPRCPVPSFHVELCREGKNLLKHFRFRDLEEDPYLPGNPRELIAYSQYPRPSDIPQWNSDKPSLKDIKIMGYSIRTIDYRYTVWVGFNPDEFLANFSDIHAGELYFVDSDPLQDHNMYNDSQGGDLFQLLMP
modifications: here or on the partner: glycosylated; linked oligosaccharide chains containing mannose-6-phosphate residues, 3.74-5.38 mol/mol (average 4.37 mol/mol)
B1: the EC50 of cellular uptake (human fibroblasts, 18 hrs, rhI2S in lysate by ELISA) in assay [3] is 0.452 mg/L.

B2: recombinant human iduronate 2-sulfatase (rhI2S) of the present invention (Lot Nos. 1-7) (enzyme)
chain: SETQANSTTDALNVLLIIVDDLRPSLGCYGDKLVRSPNIDQLASHSLLFQNAFAQQAVCAPSRVSFLTGRRPDTTRLYDFNSYWRVHAGNFSTIPQYFKENGYVTMSVGKVFHPGISSNHTDDSPYSWSFPPYHPSSEKYENTKTCRGPDGELHANLLCPVDVLDVPEGTLPDKQSTEQAIQLLEKMKTSASPFFLAVGYHKPHIPFRYPKEFQKLYPLENITLAPDPEVPDGLPPVAYNPWMDIRQREDVQALNISVPYGPIPVDFQRKIRQSYFASVSYLDTQVGRLLSALDDLQLANSTIIAFTSDHGWALGEHGEWAKYSNFDVATHVPLIFYVPGRTASLPEAGEKLFPYLDPFDSASQLMEPGRQSMDLVELVSLFPTLAGLAGLQVPPRCPVPSFHVELCREGKNLLKHFRFRDLEEDPYLPGNPRELIAYSQYPRPSDIPQWNSDKPSLKDIKIMGYSIRTIDYRYTVWVGFNPDEFLANFSDIHAGELYFVDSDPLQDHNMYNDSQGGDLFQLLMP
modifications: glycosylated; linked oligosaccharide chains containing mannose-6-phosphate residues, 3.74-5.38 mol/mol (average 4.37 mol/mol)
Take B2: the Kd came out at 0.758 nM in assay [4], 1.04 nM in assay [5] and 1.23 nM in assay [6].
